Test results taken from patent US20060088847A1 (TRUSTEES OF COLUMBIA UNIVERSITY IN THE CITY OF NEW YORK, published 2006).

Target: in vitro translated 35S-labeled ARF-BP1 (1015-4374) (human, UniProt Q7Z6Z7 1015-4374, 35S-labeled (in vitro translation))
Test: GST pull-down with 35S-labeled in vitro translated protein

binding result: no binding
B1: GST-C-ARF, the C terminus of ARF (65-132) (other, UniProt Q8N726 65-132, looked up)
chain: GHDDGQRPSGGAAAAPRRGAQLRRPRHSHPTRARRCPGGLPGHAGGAAPGRGAAGRARCLGPSARGPG
notes: range 65-132; also called CARF-(65-132); not shown: glutathione S-transferase (GST) tag of the pGEX vector
